Results: patent US20260258125A1 (NONA BIOSCIENCES SUZHOU, published 2026)

How the values were obtained:
[1] = molecular target: T1, recombinant human CEACAM6 Fc-tag protein (human, UniProt P40199 35-320, limits assumed); assay: Octet (BLI), antibody on AHC sensor, antigen in solution
T1 construct: also called huCEACAM6 (Octet); not shown: Fc tag
T1 sequence (looked up): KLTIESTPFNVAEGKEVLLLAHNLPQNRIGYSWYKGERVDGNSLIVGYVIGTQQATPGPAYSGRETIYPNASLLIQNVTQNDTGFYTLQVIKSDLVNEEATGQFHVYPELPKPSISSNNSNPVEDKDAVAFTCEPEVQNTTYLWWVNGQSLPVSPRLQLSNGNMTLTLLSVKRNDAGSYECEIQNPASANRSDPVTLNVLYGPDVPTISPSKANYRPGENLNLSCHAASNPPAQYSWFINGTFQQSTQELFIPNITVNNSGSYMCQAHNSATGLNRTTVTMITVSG
Experimental: (§1) Binding kinetics of recombinant anti-CEACAM5/6 antibodies to CEACAM5 and CEACAM6 were analyzed by Octet. In Octet analysis, recombinant human CEACAM5 Fc-tag protein (#Uniprot P06731) or CEACAM6 Fc-tag protein (Uniprot P40199) was serially diluted with 1×kinetic buffer (Fortebio). Anti-CEACAM5/6 dual-binding antibodies were diluted to 5 μg/mL. Then diluted antibodies, antigen and regeneration buffer (10 mM glycine pH 1.75) were added to 96-well plates (Greiner). Rate constants for association and dissociation were measured using AHC sensor (Fortebio). The sensor surface was regenerated after each binding experiment with regeneration buffer. The traces were processed using ForteBio Data Analysis Software (version 8.0, Pall ForteBio, CA, USA).

[2] = molecular target: T2, recombinant human CEACAM5 Fc-tag protein (human, UniProt P06731 35-685, limits assumed); assay: as above
T2 construct: also called huCEACAM5 (Octet); huCEACAM5-Fc; not shown: Fc tag
T2 sequence (looked up): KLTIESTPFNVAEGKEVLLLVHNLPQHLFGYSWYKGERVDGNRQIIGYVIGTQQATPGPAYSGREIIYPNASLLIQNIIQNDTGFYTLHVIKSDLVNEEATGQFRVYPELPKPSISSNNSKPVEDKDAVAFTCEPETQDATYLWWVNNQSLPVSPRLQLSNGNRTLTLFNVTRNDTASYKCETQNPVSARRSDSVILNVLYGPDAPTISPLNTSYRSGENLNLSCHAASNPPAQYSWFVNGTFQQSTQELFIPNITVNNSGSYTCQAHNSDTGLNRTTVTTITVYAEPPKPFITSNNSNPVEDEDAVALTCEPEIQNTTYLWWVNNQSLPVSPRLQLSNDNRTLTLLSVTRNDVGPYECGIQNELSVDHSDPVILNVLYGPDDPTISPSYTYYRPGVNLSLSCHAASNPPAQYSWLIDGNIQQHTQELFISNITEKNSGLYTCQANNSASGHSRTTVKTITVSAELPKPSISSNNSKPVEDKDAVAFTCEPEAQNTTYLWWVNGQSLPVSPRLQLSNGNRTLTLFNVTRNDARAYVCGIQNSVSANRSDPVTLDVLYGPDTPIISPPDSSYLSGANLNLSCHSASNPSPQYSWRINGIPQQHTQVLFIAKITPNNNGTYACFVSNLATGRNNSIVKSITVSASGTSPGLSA
Experimental: as §1

[3] = molecular target: T3, human CEACAM5 on 293T cells (293T-huCEACAM5 cells) (human, UniProt P06731 35-685); assay: flow cytometry on 293T-huCEACAM5 cells with against without 100 nM soluble CEACAM5
T3 construct: whole, on cells
T3 sequence (looked up): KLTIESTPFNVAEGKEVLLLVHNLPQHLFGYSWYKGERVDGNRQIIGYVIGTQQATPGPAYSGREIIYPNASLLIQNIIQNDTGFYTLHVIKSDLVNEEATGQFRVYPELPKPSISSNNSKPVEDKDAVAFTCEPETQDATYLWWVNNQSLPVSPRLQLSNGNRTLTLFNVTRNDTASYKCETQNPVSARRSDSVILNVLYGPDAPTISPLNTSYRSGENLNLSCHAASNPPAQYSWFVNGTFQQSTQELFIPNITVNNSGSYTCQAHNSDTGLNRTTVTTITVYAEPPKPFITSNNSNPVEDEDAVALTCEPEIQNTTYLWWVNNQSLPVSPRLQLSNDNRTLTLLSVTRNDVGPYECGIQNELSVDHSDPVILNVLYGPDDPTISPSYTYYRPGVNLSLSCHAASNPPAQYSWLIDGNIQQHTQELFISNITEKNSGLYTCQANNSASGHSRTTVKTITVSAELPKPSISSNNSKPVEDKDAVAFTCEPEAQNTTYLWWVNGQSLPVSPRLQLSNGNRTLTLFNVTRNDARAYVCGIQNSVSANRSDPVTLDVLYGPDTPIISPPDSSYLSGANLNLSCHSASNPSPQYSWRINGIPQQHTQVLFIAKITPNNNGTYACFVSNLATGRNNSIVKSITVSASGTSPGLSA

[4] = molecular target: T4, human CEACAM6 on 293T cells (293T-huCEACAM6 cells) (human, UniProt P40199 35-320); assay: flow cytometry on 293T-huCEACAM6 cells with against without 100 nM soluble CEACAM6
T4 construct: whole, on cells
T4 sequence (looked up): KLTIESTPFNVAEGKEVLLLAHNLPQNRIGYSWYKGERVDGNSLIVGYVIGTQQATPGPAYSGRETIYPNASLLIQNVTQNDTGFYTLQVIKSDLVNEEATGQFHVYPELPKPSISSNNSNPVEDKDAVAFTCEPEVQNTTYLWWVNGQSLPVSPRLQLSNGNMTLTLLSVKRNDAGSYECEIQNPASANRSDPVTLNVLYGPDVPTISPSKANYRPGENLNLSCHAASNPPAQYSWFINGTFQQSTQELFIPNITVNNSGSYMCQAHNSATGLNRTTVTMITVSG

human CEACAM3 protein = molecular target: T5, human CEACAM3 protein (human, UniProt P40198 35-155); assay: ELISA, human CEACAM3 protein coated on the plate, anti-human Fc-HRP, OD450
T5 construct: Bought protein; also called huCEACAM3
T5 sequence (looked up): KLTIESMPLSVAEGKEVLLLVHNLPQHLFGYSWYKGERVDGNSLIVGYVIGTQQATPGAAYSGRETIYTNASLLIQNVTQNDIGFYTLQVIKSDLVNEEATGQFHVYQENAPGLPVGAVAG
Excerpt: Binding of recombinant anti-CEACAM5/6 dual-binding monoclonal antibodies against human and cynomolgus CEACAM5, and human CEACAM6 (Uniprot P40199), human CEACAM 1, 3 (NP_001806.2, Sino Biological 11933-H08H) and 8 (NP_001807.2, Acro Bio CE8-H5224) were detected by ELISA. Anti-CEACAM5/6 dual-antibodies were serially diluted in staining buffer (PBS containing 2% FBS). […] ELISA was used to test the binding between antibody containing supernatant or purified antibodies and the antigen. Briefly, the antigens were coated on a 96-well high binding plate overnight at 4° C. The plate was washed with PBST three times, incubated with blocking buffer (2% Bovine Serum Albumin) for one hour at 37° C., washed with PBST three times and incubated with antibody containing supernatant or purified antibodies at desired dilutions or concentrations for one hour at 37° C. A secondary antibody, anti-human Fc-HRP (Jackson Laboratory, 109-035-097) was used for detection of the targeted antibody. TMB and stopping solution were used for detection of HRP signal. The HRP signal was read on a SPECTRAMAX plate reader.

[5] = molecular target: T3, human CEACAM5 on 293T cells …; assay: cell-based or functional assay
[6] = molecular target: T4, human CEACAM6 on 293T cells …; assay: cell-based or functional assay

B1: PR304294 (antibody, human IgG1, kappa, V domains shown)
VH: EVQLLESGGGLVQPGGSLRLSCAASGFTFSSYAMSWVRQAPGKGLEWVSAISGTTYNTYYAGSVKGRFTISRDNSKNTLYLQMNSLRAEDTAVYYCAKGISVAGYYYYGMDVWGQGTTVTVSS
VL: EIVMTQSPATLSVSPGERATLSCRASQSVISNLAWYQQKPGQAPRLLIYGASTRATGIPARFSGSGSGTEFTLTISSLQSEDFAVYYCHQYNNWPLTFGGGTKVEIKR
notes: Recombinant full antibody
- Kd [1]: 19.9 nM
- Kd [2]: 5.48 nM
- fold change of EC50 at the presence of 100 nM soluble protein [3]: 4.1 fold
- fold change of EC50 at the presence of 100 nM soluble protein [4]: 2.1 fold
- binding result (human CEACAM3 protein): no binding (tested: 100 nM)
- Internalization of pHAb-dye-labelled antibody, MFI (37° C.-4° C.)/DAR [5]: 11300
- Internalization of pHAb-dye-labelled antibody, MFI (37° C.-4° C.)/DAR [6]: 14700
